The data set is described as follows: protein stability index of a GFP-peptide fusion (GPS, HEK-293T) (PSI 1-6); higher = more stable. Conditions: c terminus: a fixed tail appended.

± gives the standard deviation.
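Also: 24-mer peptide tiles fused after GFP, lentivirally expressed, FACS-sorted into six equal bins by GFP/DsRed ratio, decoded by Illumina sequencing, PSI is the read-weighted mean bin number.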

In the case of RGENLEHLRNKTEDLEATSEHFKT [VAMP8], the protein stability index is, setting by setting: (treatment: DMSO) 5.43 ± 0.35; (treatment: MLN4924 1 uM, 8 h) 5.29 ± 0.12.
On the same counts, the results for RGIAIVSVLVILISIVIFCLETLP [KCNA4] are 2.29 ± 0.17 and 2.26 ± 0.33.
Turning to RGRPRKLSKEYWDCLEGKKSKHAP [ELF3], the protein stability index is, setting by setting: (treatment: DMSO) 4.18 ± 0.27; (treatment: MLN4924 1 uM, 8 h) 4.19 ± 0.47.
On the same counts, the results for RHVAPIPSHYDVQDRFRIELSEEG [MOSPD3] are 4.34 ± 0.4 and 4.69 ± 0.21.
In the same order, the values of RKFSRLSCLRRRRHPPKVGDDSDL [SMG5] are 4.08 ± 0.17 and 3.96 ± 0.28.
In the case of RKLQKEQQRSKDLESRQRSLEQAN [TFE3], the protein stability index was 5.09 ± 0.3 (treatment: DMSO) and 5.11 ± 0.27 (treatment: MLN4924 1 uM, 8 h).
As to RKVLQAVHRGDGANPFQAYLDVDL [RTN2], the protein stability index came to 3.21 ± 0.26 (treatment: DMSO) and 3.26 ± 0.19 (treatment: MLN4924 1 uM, 8 h).
Take RLAADDFRTKFETEQALRLSVEAD [KRT17]: the protein stability index (treatment: DMSO) stood at 4.8 ± 0.3 and the protein stability index (treatment: MLN4924 1 uM, 8 h) stood at 4.66 ± 0.15.
In the same order, the values of RLAQGNPQQGFFSSFFTCNQKCQL [ATP23] are 2.49 ± 0.45 and 2.53 ± 0.23.
On the same counts, the results for RLAQPSSPEVLTPQLSPGSGTPQA [RTN2] are 5.12 ± 0.12 and 4.96 ± 0.2.
On the same counts, the results for RLPWAGQLTKELPLSPAFFGEDGI [PBXIP1] are 3.43 ± 0.44 and 3.49 ± 0.28.
RLVLPIAYEFNPELVLVSAGFDAA [HDAC6] came in with a protein stability index (treatment: DMSO) of 2.3 ± 0.57 and a protein stability index (treatment: MLN4924 1 uM, 8 h) of 2.4 ± 0.2.
In the same order, the values of RLWGIRKNRPAMNYDKLSRSIRQY [SPDEF] are 2.4 ± 0.25 and 2.4 ± 0.45.
In the same order, the values of RMPDEDSKIDHYVLEYRRTNFEGP [FSD1] are 3.78 ± 0.19 and 3.79 ± 0.14.
In the same order, the values of RNGLHLPEQVQNEIKSMKKRMSEL [NLN] are 4.11 ± 0.33 and 4.4 ± 0.31.
Turning to RNRGRFSSTTGLFYSAEIICAIEY [PRKX], the protein stability index (treatment: DMSO) stood at 2.92 ± 0.47 and the protein stability index (treatment: MLN4924 1 uM, 8 h) amounted to 2.91 ± 0.71.
With RPDGDCASSLNGGNIKGIEGHSPG [ZC2HC1A], the protein stability index came to 5.16 ± 0.18 (treatment: DMSO) and 5.02 ± 0.31 (treatment: MLN4924 1 uM, 8 h).
On the same counts, the results for RPLCAQGDWHSPTLIREKSFGACL [ELOA2] are 2.53 ± 0.19 and 2.6 ± 0.21.
In the same order, the values of RPMHHEDFKEDLKKFRTKSRTWAG [CDC25A] are 3.31 ± 0.22 and 3.61 ± 0.36.
With RPSTYYELLGVHPGASTEEVKRAF [DNAJC4], the protein stability index is 3.48 ± 0.21 (treatment: DMSO) and 3.86 ± 0.23 (treatment: MLN4924 1 uM, 8 h).
In the case of RQKTSGPSVIQEIHQESGKAPSTD [C10orf62], the protein stability index is, setting by setting: (treatment: DMSO) 5.41 ± 0.073; (treatment: MLN4924 1 uM, 8 h) 5.4 ± 0.057.
On the same counts, the results for RRARINESLQELRLLLAGAEVQAK [HES6] are 2.62 ± 0.3 and 2.84 ± 0.77.
Take RRDAEEWFHAKSAELNKEVSTNTA [KRT13]: the protein stability index was found to be 4.71 ± 0.25 (treatment: DMSO) and 4.79 ± 0.1 (treatment: MLN4924 1 uM, 8 h).
In the same order, the values of RRFSSEDLEDPLGGLLSYDEGGIT [FBF1] are 4.57 ± 0.21 and 4.56 ± 0.16.
Take RRKIRELQLRYSLRILIGDPPHHD [BEX5]: the protein stability index came to 2.42 ± 0.42 (treatment: DMSO) and 2.07 ± 0.23 (treatment: MLN4924 1 uM, 8 h).
On the same counts, the results for RSCAIVEDDGLQSAFTAAHELGHV [ADAMTS4] are 3.62 ± 0.43 and 3.55 ± 0.2.
RSLILDDRGLRGFPKNRVLEGVID [TRIM9]: the protein stability index (treatment: DMSO) stood at 3.16 ± 0.2 and the protein stability index (treatment: MLN4924 1 uM, 8 h) turned out to be 3.47 ± 0.41.
In the same order, the values of RSRYDGHRIWMYNCHIGGSFSEET [LOXL2] are 2.17 ± 0.35 and 2.72 ± 0.35.
In the same order, the values of RSSFANQGEICLCTSRIFVQKSIY [ALDH8A1] are 2.03 ± 0.41 and 2.13 ± 0.24.
As for RTALEYCKLILSLEPDEDPLCMLL [TCF25], the protein stability index reads like this: (treatment: DMSO) 2.24 ± 0.36; (treatment: MLN4924 1 uM, 8 h) 2.32 ± 0.3.
On the same counts, the results for RTCFSPASDGSDFTFLRPLSVQQP [PCDHGC5] are 2.77 ± 0.23 and 2.78 ± 0.22.
In the same order, the values of RTDLKDLIIFDKQSSQRMRQNLKL [CEP70] are 2.93 ± 0.24 and 2.93 ± 0.32.
In the same order, the values of RTDPNGDYIRRYLPVLRGFPAKYI [CRY1] are 2.27 ± 0.3 and 2.42 ± 0.39.
For the sequence RTMCAVLGLVARQEDSGLRDHSVR [AUP1], the protein stability index stood at 2.43 ± 0.33 (treatment: DMSO) and 2.76 ± 0.26 (treatment: MLN4924 1 uM, 8 h).
On the same counts, the results for RTPLHYAAANCHFHCIETLVTTGA [ANKRD44] are 2.36 ± 0.57 and 2.44 ± 0.5.
On the same counts, the results for RVRKEAMMGLAQIYKKYALQSAAG [PDS5B] are 2.2 ± 0.37 and 2.14 ± 0.34.
In the same order, the values of RVSRKPTAAMRCMCPLYDPNRQLW [GAN] are 2.48 ± 0.67 and 2.34 ± 0.47.
Take RVYVSGLMKGGADLFVENMPGFPD [APMAP]: the protein stability index by setting is: (treatment: DMSO) 2.56 ± 0.34; (treatment: MLN4924 1 uM, 8 h) 2.7 ± 0.35.
Turning to RYDAEVVAIAQKFAALRASLVAPL [MYORG], the protein stability index was found to be 2.55 ± 0.17 (treatment: DMSO) and 2.01 ± 0.17 (treatment: MLN4924 1 uM, 8 h).
In the same order, the values of SASECMQDFNTMFTNCYIYNKPTD [BRD3] are 3.1 ± 0.23 and 3.08 ± 0.45.
In the same order, the values of SCSLVLEHQPDNIKALFRKGKVLA [FKBP8] are 2.76 ± 0.15 and 2.68 ± 0.26.
For SCTIIFLASIFQLAMWTTALLHQA [TMEM175], the protein stability index by setting is: (treatment: DMSO) 2.5 ± 0.2; (treatment: MLN4924 1 uM, 8 h) 3.17 ± 0.54.
On the same counts, the results for SDARVVKDMATGKSKGYGFVSFFN [TIA1] are 2.79 ± 0.35 and 2.77 ± 0.16.
For the sequence SDRRKEKDPKAGDSKSGGSGSESD [DVL3], the protein stability index reads like this: (treatment: DMSO) 5.69 ± 0.32; (treatment: MLN4924 1 uM, 8 h) 5.55 ± 0.15.
In the same order, the values of SDTYRCEERSPSFGEDYYGPSRSR [CLK3] are 4.47 ± 0.12 and 4.52 ± 0.2.
In turn, SEDQKRLKQAKELDRERAAANEQL [CHCHD3] returned a protein stability index (treatment: DMSO) of 5.48 ± 0.17 and a protein stability index (treatment: MLN4924 1 uM, 8 h) of 5.57 ± 0.21.
On the same counts, the results for SEHVLKKAHKYSELIILYEKKGLH [VPS39] are 2.08 ± 0.23 and 2.27 ± 0.34.
In the same order, the values of SERDSEAAKQNHVTADDFVQTSVI [EHMT1] are 5.34 ± 0.45 and 5.35 ± 0.34.
In the same order, the values of SETHAAGHSQEKTHSREKSSQESG [CHGB] are 5.67 ± 0.22 and 5.57 ± 0.16.
Sequence SFARDLPDFPSINMDPAGLDDEDD [RETREG3] showed a protein stability index (treatment: DMSO) of 5.41 ± 0.32 and a protein stability index (treatment: MLN4924 1 uM, 8 h) of 5.49 ± 0.098.
In the same order, the values of SFEHRVRGVRRTASTPTPDDKLFQ [CPN1] are 4.3 ± 0.31 and 4.37 ± 0.3.
For the sequence SFLKQKEQLEAEAQALRQELERQR [PBXIP1], the protein stability index is, setting by setting: (treatment: DMSO) 4.43 ± 0.39; (treatment: MLN4924 1 uM, 8 h) 4.52 ± 0.088.
In the same order, the values of SFSVLNWDQVSRLHEVLTEVVPIH [TENT5C] are 2.26 ± 0.28 and 2.3 ± 0.27.
In the same order, the values of SGGGSTSAAGIEARSRALRRRWCP [SPACA3] are 3.95 ± 0.12 and 4 ± 0.13.
In the same order, the values of SGGSYRDSYESYGNSRSAPPTRGP [RBMX] are 4.3 ± 0.27 and 3.83 ± 0.38.
SGLIEIQSYPLCIYLINQKWFGRK [SLC22A15] came in with a protein stability index (treatment: DMSO) of 2.47 ± 0.59 and a protein stability index (treatment: MLN4924 1 uM, 8 h) of 2.19 ± 0.2.
On the same counts, the results for SGSDVLDNVAYARAFNTDHQTQLL [RAD51] are 3.66 ± 0.21 and 3.73 ± 0.12.
On to SGSRPRKPPPRKHTRSWAVLKLLL [LRRC59], for which the protein stability index was found to be 2.39 ± 0.37 (treatment: DMSO) and 2.31 ± 0.28 (treatment: MLN4924 1 uM, 8 h).
In the same order, the values of SIAPPEAEGVVLSDSPDAADSTSF [PPTC7] are 5.34 ± 0.61 and 5.29 ± 0.76.
On the same counts, the results for SIRILDELVLPFQELQIDDNEYAY [HNF4A] are 3.46 ± 0.26 and 3.44 ± 0.26.
On to SISDLSEHVFDLILELYNIDSHLL [PDS5B], for which the protein stability index reads like this: (treatment: DMSO) 2.49 ± 0.89; (treatment: MLN4924 1 uM, 8 h) 2.25 ± 0.81.
In the same order, the values of SITHYRPVSASRSSLDLSYYPTSS [EMD] are 3 ± 0.26 and 3.23 ± 0.19.
In the case of SKATFSRNIMNLIDIVAIIPYFIT [KCNA3], the protein stability index by setting is: (treatment: DMSO) 3.16 ± 0.52; (treatment: MLN4924 1 uM, 8 h) 3.32 ± 0.76.
On the same counts, the results for SKPKTFQAYLDDCHRRYSCAHCRA [YPEL3] are 2.41 ± 0.55 and 3.04 ± 0.59.
On the same counts, the results for SKQSPPMASSPIQPRKGGADWLGL [FBF1] are 3.23 ± 0.47 and 3.48 ± 0.42.
Turning to SLGERMNTFVRYLLKRIKKCCGMR [KCNK9], the protein stability index by setting is: (treatment: DMSO) 3.38 ± 0.14; (treatment: MLN4924 1 uM, 8 h) 2.83 ± 0.32.
On the same counts, the results for SLIQLLGRNFILFIIFGTMEEMQN [HACD3] are 2.92 ± 0.67 and 3.01 ± 1.3.
As for SLLDVQRVPSFESFEDDCSQSLCL [ETS2], the protein stability index amounted to 3.9 ± 0.53 (treatment: DMSO) and 3.67 ± 0.54 (treatment: MLN4924 1 uM, 8 h).
In the same order, the values of SLLGDDVFSTMAGLEEADAEVSVI [FBF1] are 3.56 ± 0.26 and 3.5 ± 0.22.
Take SLLRGFLLQNEFVGFMWRQRGRVI [MCOLN1]: the protein stability index was found to be 2.29 ± 0.2 (treatment: DMSO) and 2.13 ± 0.2 (treatment: MLN4924 1 uM, 8 h).
In the same order, the values of SLPSPSSSGHQNRRFSSEDLEDPL [FBF1] are 5.45 ± 0.3 and 5.46 ± 0.29.
SLVWGMVCGQNWGIVEAMVVCRQL [LOXL2]: the protein stability index runs as follows: (treatment: DMSO) 2.46 ± 0.82; (treatment: MLN4924 1 uM, 8 h) 3.07 ± 0.36.
On the same counts, the results for SMFTLPVVYVKHQAQIDQYLGLVR [RTN1] are 2.5 ± 0.49 and 2.23 ± 0.41.

For the origin of these results see the supplement of paper PMC10567573.
